target: ORAI1 (Homo sapiens, UniProt Q96D31); test: Confocal localization of mCherry-STIM1 proteins in HEK293 cells; type: cell-based; parameters: expressed in transfected cells; host or cells: HEK293; settings: mCherry-STIM1 proteins coexpressed with ORAI1 in HEK293 cells
From the text: The localization of mCherry-STIM1 proteins in transiently-transfected HEK293 cells was investigated. mCherry-STIM1 (233-683), or (233-498) or (233-463) expressed alone, and also mCherry-STIM (233-683), or (233-498) or (233-463) expressed with ORAI-EYFP in the plasmid ratios 1:0, 0.5:1, 1:1, and 2:1 were examined. […] This is consistent with the functional assay in T cells and with recent reports in the literature (Muik, M., et al., J Biol Chem 283, 8014-8022 (2008); Penna, A., et al., Nature 456, 116-120 (2008); Ji, W., et al., Proc Natl Acad Sci USA 105, 13668-13673 (2008); Yuan, J. P., et al., Nat Cell Biol 11, 337-34 3 (2009); Muik, M., et al., J Biol Chem 284, 8421-8426 (2009); Park, C. Y., et al., Cell 136, 876-890 (2009)). […] The contrasting failure to detect binding of STIM 1 (233-463) in vitro might conceivably reflect the state of the bacterially-expressed protein as a mixture of trimers, tetramers, and undefined large aggregates. A more intriguing possibility, however, is that a weak interaction of STIM 1 (233-463) with ORAI is stabilized and rendered productive by additional proteins in mammalian cells.
An ORAI1-YFP expression plasmid was constructed by cloning the human ORAI1 cDNA (accession number NM_032790) into the vector pEYFP-N1 between the EcoRI and AgeI sites, in frame with the YFP coding sequence. mCherry-tagged STIM 1^CT fragments were made by subcloning mCherry between the BamHI and EcoRI sites of the vector pcDNA3.1(+) (Invitrogen), and subsequently inserting cDNA encoding STIM1^CT fragments between the EcoRI and XhoI sites.
HEK293 cells were transiently transfected with ORAI-YFP or mCherry-STIM plasmids using Lipofectamine 2000 (Invitrogen) according to the manufacturer's instructions. At 48 h post-transfection, confocal imaging was performed on a Zeiss LSM 510 laser scanning microscope with a 100× oil-immersion objective lens. YFP was excited at 488 nm with an argon laser and mCherry at 543 nm with a HeNe laser. All the experiments were carried out with cells bathed in Hanks' Balanced Salt Solution at 37° C.

Chain of ORAI1 (Q96D31 whole entry): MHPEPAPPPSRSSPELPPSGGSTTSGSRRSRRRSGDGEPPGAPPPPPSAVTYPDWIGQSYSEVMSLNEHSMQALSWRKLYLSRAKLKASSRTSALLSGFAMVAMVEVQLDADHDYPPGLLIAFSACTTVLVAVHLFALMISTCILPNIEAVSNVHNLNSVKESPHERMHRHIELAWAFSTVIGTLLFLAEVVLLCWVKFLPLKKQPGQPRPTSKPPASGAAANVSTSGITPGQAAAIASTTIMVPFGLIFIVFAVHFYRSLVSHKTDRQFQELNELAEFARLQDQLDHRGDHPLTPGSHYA

| localization at plasma membrane | Substance |
| --- | --- |
| decorated the plasma membrane | STIM1 (233-463): truncated mouse STIM1 cytoplasmic fragment, residues 233-463, His-tagged recombinant protein |
| decorated the plasma membrane | STIM1 (233-498): truncated mouse STIM1 cytoplasmic fragment, residues 233-498, His-tagged recombinant protein |

| Substance | localization at plasma membrane |
| --- | --- |
| STIM1^CT: cytoplasmic region of STIM1, mouse residues 233-685, His-tagged recombinant protein expressed in E coli | decorated the plasma membrane |

Reference: US20120264231A1, “ASSAY FOR ORAI CALCIUM CHANNEL REGULATORS” (IMMUNE DISEASE INSTITUTE, INC., priority 2009, published 2012)
